Experimental data as given in US20160311868A1.

Legend:
[1] = target: TgMyoA heavy chain with C-terminal Bio-tag and FLAG-tag (TgMyoA-cBio-cFLAG) (Toxoplasma gondii) (UniProt O00934); assay: cell-based or functional assay

Substance | speed of actin movement, in vitro motility assay (TgMyoA with TgMLC1 only) [1] | Km for actin, steady-state actin-activated ATPase (skeletal muscle actin)
TgMLC1, Toxoplasma gondii myosin light chain MLC1 (regulatory light chain), untagged | 1.5 µm/s | 
TgMyoA expressed with both light chains (TgMyoA heavy chain with bound TgMLC1 and TgELC1) |  | a Km for actin of 136±22 µM at 30 °C
